This note sets out measurements from paper PMC3656124, “DNA Topoisomerase II Is Involved in Regulation of Cyst Wall Protein Genes and Differentiation in Giardia lamblia” (PLoS Neglected Tropical Diseases, 2013).

Series [1] concerns the target T1, Topo IICm1 (Giardia lamblia, UniProt E2RU90 489-1491, Y847H).
T1 sequence: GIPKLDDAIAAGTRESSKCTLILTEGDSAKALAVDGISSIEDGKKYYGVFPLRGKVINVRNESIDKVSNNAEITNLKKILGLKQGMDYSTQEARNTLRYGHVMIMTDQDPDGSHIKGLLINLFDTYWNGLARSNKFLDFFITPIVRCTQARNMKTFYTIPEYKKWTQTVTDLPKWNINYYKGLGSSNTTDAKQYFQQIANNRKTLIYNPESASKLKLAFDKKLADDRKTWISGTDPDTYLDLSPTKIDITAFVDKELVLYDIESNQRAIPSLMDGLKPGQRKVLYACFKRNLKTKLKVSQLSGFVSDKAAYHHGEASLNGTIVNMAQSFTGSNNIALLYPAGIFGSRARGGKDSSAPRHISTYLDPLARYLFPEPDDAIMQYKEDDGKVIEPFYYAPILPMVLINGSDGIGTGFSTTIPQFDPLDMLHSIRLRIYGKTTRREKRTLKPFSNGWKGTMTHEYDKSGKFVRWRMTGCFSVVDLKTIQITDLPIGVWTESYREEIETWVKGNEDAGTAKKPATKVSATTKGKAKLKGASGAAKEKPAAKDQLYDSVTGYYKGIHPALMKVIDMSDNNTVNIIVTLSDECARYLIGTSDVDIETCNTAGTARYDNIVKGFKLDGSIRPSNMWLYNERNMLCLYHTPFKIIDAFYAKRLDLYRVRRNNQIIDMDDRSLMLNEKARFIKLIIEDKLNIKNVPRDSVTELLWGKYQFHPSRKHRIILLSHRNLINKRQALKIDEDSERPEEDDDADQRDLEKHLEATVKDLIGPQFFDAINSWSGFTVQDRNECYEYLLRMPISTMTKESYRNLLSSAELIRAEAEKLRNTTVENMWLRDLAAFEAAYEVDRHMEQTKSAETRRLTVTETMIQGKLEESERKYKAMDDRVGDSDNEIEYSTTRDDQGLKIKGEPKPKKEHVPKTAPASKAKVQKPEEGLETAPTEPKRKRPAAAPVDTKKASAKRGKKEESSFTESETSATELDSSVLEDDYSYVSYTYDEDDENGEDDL
Put plainly: EMSA; EMSA: 0.02 pmol 5'-labeled probe, 5 ng protein, 20 ul, 0.5 ug poly(dI-dC), 15 min, room temperature, 6% acrylamide gel; buffer, salt and pH only by citation. The conditions noted are these: protein: recombinant; tags: C-terminal V5-His; chain copies: 2; label: 5'-32P. On the technique in general: A gel shift assay detects complexes by their altered migration in electrophoresis.

Series [2] concerns the target T2, Topo IIC (Giardia lamblia, UniProt E2RU90 489-1491).
T2 sequence: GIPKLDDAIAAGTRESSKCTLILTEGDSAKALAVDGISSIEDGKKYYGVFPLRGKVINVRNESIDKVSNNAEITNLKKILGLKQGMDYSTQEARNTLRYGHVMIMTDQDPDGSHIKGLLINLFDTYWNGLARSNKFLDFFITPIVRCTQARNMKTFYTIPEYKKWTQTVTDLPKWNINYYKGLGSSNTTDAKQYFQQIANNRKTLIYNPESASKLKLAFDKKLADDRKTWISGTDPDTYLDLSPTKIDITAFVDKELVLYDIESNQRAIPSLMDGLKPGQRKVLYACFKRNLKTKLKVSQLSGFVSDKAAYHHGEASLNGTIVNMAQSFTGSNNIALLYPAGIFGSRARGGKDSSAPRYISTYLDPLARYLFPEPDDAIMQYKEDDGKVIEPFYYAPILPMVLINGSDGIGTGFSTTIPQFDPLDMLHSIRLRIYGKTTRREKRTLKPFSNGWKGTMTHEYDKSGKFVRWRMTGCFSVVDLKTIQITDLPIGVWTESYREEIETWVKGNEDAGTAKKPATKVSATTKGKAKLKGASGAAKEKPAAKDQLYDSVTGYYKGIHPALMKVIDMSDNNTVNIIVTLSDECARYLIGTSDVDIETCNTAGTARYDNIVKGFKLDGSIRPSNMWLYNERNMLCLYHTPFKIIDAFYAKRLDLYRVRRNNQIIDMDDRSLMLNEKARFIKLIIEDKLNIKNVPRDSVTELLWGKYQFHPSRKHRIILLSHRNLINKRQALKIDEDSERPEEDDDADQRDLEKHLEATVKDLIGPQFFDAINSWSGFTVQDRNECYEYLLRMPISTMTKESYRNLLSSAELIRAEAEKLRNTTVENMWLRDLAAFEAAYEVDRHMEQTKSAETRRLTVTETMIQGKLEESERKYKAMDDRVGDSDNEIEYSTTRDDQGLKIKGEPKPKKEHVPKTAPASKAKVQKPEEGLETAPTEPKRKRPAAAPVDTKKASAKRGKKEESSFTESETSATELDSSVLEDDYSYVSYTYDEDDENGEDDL
Described as above. The conditions noted are these: protein: recombinant; tags: C-terminal V5-His; chain copies: 2; label: 5'-32P.

B1: IIBS (dsDNA)
DNA 1: ATGAAATCTAACAATGCGCTCATCGTCATCCTCGGC
DNA 2: GCCGAGGATGACGATGAGCGCATTGTTAGATTTCAT
Turning to B1, the binding result in series [1] and in series [2] was “binds” each time.
